The record followed here is publication PMC10039935, “Organic electrochemical transistors as on-site signal amplifiers for electrochemical aptamer-based sensing”.

For the data set, the target named is TGF-β1 (transforming growth factor beta 1) (UniProt P01137 279-390). The data set is described as follows: electrochemical aptamer sensor (CV/SWV, signal-off) with OECT readout; 1 mM MgCl2 in aptamer folding; aptamer on Au with MCH backfill; 1x PBS (selectivity test in bare 1x PBS); aptamer folded and MCH backfill in 1x PBS with 1 mM MgCl2; assay pH and temperature not stated. The following applies: chain copies: 2; label: 5' methylene blue; 3' thiol on Au electrode; single strand, folded.
TGF-β1 (transforming growth factor beta 1), sequence (P01137 279-390): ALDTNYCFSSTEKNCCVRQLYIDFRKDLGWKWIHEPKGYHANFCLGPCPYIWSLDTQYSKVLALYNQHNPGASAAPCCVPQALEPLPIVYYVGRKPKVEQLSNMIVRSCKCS

B1: TGF-β1 aptamer (MB-modified) (XNA)
DNA: CGCTCGGCTTCACGAGATTCGTGTCGTTGTGTCCTGTACCCGCCTTGACCAGTCACTCTAGAGCATCCGGACTG
modifications: partial phosphorothioate, 5' side of some A and C, printed as * : CG*CTCGG*CTTC*ACG*AG*ATT*CGTGT*CGTTGTGT*C*CTGT*A*C*C*CG*C*CTTG*A*C*C*AGT*C*ACT*CT*AG*AGC*AT*C*CGG*A*CTG; 5' amino C6; 3' iSpC3 and thiol C3
Regarding B1, the binding result is “binds”.
